This note sets out measurements from publication PMC6024848.

A word on the stoichiometry N: it is a count of units in the complex or per binding partner.

The test has as its target AcLys, putative Acinetobacter baumannii AB 5075 prophage endolysin (Acinetobacter baumannii AB 5075 (prophage region)). Nature of the test: SEC; gel permeation (size-exclusion) chromatography of recombinant AcLys; Superose 12 HR10/30 in 50 mM Bis-Tris pH 6.0 named for the purification step; monomer and dimer fractions redistribute to the mixture 3-4 h after separation; more monomer in dilute solution; beta-mercaptoethanol does not affect dimerization; dimer to monomers. For orientation: Size exclusion chromatography separates by hydrodynamic size, large species first.

“AcLys, putative Acinetobacter baumannii AB 5075 prophage endolysin (enzyme)”: the stoichiometry N was determined as 2.
